Source: patent publication US20050220796A1

Experiments:
[1] = target: DNA-dependent protein kinase catalytic subunit (DNA-PKcs) (human) (UniProt P78527); experiment: cell-based or functional assay
[2] = target: DNA-dependent protein kinase catalytic subunit (DNA-PKcs) (human) (UniProt P78527); experiment: SPR (Biacore X), scFv amine coupled to a CM-5 chip, purified DNA-PKcs as analyte, 25 C

Chain of UniProt P78527 (P78527 whole entry): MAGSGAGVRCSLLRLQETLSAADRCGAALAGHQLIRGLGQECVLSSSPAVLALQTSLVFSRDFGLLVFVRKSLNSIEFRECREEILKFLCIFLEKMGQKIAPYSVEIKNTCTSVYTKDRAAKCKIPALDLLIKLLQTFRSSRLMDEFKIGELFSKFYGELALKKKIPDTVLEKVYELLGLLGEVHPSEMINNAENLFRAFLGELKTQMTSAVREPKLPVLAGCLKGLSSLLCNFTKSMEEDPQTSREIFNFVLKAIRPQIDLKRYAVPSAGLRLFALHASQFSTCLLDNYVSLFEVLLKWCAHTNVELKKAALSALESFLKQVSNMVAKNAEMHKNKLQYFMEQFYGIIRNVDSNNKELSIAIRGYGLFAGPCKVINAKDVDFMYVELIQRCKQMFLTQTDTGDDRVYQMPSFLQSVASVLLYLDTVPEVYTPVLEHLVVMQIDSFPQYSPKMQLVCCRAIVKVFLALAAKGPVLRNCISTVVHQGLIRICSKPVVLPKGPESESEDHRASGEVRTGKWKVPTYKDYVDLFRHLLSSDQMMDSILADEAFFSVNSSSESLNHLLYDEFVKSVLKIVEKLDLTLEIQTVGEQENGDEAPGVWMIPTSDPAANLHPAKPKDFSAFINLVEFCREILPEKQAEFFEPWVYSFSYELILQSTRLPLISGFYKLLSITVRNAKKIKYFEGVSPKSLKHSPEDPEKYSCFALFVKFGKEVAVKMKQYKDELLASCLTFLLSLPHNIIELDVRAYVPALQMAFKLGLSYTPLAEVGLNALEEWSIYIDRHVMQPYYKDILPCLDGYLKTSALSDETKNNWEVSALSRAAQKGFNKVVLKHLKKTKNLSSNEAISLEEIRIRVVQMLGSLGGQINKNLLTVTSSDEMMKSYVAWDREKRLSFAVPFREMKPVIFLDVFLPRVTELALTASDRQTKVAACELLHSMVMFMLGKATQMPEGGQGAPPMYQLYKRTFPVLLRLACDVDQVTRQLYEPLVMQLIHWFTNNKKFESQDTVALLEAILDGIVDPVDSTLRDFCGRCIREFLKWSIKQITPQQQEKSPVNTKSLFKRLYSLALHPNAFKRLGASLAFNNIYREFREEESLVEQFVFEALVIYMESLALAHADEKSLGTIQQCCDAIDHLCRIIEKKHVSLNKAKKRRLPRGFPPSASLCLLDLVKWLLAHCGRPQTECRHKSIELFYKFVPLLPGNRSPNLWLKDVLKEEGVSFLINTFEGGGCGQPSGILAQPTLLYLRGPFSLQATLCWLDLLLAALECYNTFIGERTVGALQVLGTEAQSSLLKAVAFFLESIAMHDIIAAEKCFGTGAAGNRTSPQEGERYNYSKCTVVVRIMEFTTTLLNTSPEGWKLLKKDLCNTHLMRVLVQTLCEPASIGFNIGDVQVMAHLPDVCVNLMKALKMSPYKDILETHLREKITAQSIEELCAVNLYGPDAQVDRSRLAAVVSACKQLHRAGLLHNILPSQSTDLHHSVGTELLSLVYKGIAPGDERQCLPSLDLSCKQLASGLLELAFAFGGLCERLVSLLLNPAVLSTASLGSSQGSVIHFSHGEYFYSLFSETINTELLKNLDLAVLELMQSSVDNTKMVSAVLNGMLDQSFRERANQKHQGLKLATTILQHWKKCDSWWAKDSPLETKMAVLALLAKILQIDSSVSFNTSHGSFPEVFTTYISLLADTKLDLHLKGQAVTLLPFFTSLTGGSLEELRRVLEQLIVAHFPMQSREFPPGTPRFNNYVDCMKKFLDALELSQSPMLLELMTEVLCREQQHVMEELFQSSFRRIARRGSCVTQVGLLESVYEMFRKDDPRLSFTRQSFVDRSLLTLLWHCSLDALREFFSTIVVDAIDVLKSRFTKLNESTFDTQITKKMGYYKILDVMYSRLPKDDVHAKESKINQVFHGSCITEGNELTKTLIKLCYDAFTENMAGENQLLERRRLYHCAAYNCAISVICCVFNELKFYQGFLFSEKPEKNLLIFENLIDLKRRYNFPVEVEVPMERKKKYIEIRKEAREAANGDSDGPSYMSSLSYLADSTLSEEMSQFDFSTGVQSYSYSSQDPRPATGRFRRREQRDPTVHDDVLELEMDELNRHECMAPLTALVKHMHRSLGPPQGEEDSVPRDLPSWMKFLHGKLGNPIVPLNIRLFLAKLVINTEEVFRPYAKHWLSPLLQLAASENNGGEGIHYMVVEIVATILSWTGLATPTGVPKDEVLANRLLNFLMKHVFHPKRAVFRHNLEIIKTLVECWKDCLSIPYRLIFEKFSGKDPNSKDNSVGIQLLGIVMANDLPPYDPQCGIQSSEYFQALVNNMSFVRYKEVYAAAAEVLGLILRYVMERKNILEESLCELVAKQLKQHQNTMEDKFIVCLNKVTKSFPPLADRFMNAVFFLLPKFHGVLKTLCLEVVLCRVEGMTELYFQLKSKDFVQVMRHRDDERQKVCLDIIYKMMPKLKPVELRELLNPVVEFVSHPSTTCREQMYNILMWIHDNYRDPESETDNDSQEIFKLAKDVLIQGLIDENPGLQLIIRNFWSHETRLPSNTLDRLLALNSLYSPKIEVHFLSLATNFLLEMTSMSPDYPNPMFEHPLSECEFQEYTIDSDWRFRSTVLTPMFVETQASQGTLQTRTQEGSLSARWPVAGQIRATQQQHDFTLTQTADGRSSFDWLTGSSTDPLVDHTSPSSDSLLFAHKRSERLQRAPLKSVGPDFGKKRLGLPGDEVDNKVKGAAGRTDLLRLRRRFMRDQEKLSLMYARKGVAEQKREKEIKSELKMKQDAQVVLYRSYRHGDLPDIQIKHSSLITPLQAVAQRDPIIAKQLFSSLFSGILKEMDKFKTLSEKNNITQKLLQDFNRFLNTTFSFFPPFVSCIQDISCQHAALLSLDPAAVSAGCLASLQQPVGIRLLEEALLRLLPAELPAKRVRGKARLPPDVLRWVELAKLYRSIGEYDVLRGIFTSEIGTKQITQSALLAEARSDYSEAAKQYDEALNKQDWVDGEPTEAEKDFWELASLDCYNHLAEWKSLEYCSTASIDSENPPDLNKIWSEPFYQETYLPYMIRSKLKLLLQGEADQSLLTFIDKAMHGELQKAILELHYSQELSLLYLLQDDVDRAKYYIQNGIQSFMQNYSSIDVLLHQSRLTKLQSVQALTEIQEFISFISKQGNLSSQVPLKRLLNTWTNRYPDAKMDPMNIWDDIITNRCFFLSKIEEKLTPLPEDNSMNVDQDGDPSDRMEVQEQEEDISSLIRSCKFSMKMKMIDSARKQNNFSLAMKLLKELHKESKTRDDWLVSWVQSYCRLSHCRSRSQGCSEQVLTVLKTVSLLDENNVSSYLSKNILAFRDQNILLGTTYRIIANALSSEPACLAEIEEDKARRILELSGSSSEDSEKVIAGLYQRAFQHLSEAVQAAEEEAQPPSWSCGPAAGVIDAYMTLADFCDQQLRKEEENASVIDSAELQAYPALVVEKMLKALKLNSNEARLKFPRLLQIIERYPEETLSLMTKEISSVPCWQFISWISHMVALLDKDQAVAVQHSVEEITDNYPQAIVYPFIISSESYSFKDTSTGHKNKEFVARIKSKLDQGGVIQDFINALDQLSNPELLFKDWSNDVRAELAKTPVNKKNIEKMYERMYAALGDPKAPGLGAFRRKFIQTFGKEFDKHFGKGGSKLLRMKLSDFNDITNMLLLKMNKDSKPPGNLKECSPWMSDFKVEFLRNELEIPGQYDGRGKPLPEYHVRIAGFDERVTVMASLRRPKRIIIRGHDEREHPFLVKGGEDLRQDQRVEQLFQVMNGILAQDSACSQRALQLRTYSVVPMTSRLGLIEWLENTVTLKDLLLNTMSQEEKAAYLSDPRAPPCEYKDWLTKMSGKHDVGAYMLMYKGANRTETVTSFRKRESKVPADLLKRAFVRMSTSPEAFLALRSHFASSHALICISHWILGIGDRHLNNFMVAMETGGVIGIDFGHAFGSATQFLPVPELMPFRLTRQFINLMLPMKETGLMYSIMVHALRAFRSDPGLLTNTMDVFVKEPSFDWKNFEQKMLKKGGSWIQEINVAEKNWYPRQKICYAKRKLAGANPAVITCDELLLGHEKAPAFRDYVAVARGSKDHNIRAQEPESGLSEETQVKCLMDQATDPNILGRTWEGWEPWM

decrease in p53 peptide phosphorylation activity [1]: 50%
Kd [2]: 1.4 nM
B1: scFv 18-2 (scFv, V domains shown)
VH: QVKLQESGAELVKPGASVKLSCKAFDYTFTTYDINWIKQRPGQGLWIGWIYPGSGNNKYNEKFKGKATLTADKSSRAAYMHLSSLTSEDSAVYFCAGGPLNMTGFDYWGQGTTVTVSS
VL: DIELTQSPSSMYASLGERVTITCKASQDINSYLSWFQQKPGKSPKTLIYRANRLVDGVPSRFSGSGSGQDYSLTISSLEYEDMGIYYCLQYDELPLTFGAGTKLEIK
